Experimental findings from the DeepSol protein solubility set are described below.

This series in a line: soluble on expression in E. coli; label from the status in PepcDB or PDB records.
Turning to “STPTSQALYSDFSPPEGLEELLSAPPPDLVAQRHHGWNPKDCSENIDVKEGGLCFERRPVAQSTDGVRGKRGYSRGLHAWEISWPLEQRGTHAVVGVATALAPLQADHYAALLGSNSESWGWDIGRGKLYHQSKGLEAPQYPAGPQGEQLVVPERLLVVLDMEEGTLGYSIGGTYLGPAFRGLKGRTLYPSVSAVWGQCQVRIRYMGERRVEE”, the “soluble on expression in E. coli” value is listed as “soluble”.
In the case of “MSDHEEESHGASPTSPASSGASSPLAPISPRSEGNAPESPSGDVQDIYKDESFEAPASPARDSSAPASPSAASPAGSRSPSPSPVKTKSKVMIDSDEDSDAEESANKRALIDSDASDAEGKKRRVMLDSDDSDHEGTSKKEPTTKNLFGDDSDDDDEDRPKKTNDLDEFVEGRDEEESQETSKPAYDSDDDDGPVDRHGRHFEWDFDKMLAEKKAERKKKTRRGGKDGGIDIINDDDGTVSRLVERMKHAAKSDRNANIERKPAFQKIKMLPEVKAIMLRAGIVEVLIENGFMSALSEWLAPLPDKCLPALDIRITVLKLLHNPRFWKLDRSTLKQSGLGKAVMMLYKHPNETKENKGIANKLIGEWARPIYHLDTDYSTVSRQEREERDYSRMPEKRKKKINSRDEEEPNDDDQPKRPRIRDADEMGPTKSDDLKPGDKGYIPRARVPKPSTKDYVIRPEWRVTGAFKGEKKSTGNNRYDQTFRDFQERTKKSKANRIVKVSLEGRNMGI” it was “soluble”; in that of “MSLASAMASSALREATCTMTRLAADVAASVSSIFSCKDSAGPRPVVPATKTTSTPLDVMFFTWFAKSSGSSLPPLKVVMTGATISIDSTRGALKKLARKGIKGWLNQYMATIKEIEPIVLYEQETDARWASYSILVRVVTSDGRVSYGEAVPTLRILPVVSAVRQTARAFLGRDPHEISAAFYEWYRQDFFLSRSFESATALSAIDMALWDLKARELGAPLYELLGGKLRDRVKVYANGWYGGCRDPQCFAEKAKEVVARGYDALKFDPFGPSFNSITSEELRRAEEAVAAVRDAVGDDVDILIEHHGRFNANAAVEIAKRFEPYRPYFMEEPLHHEDIEGYRKYRSLTSARIAMGERLISAKEALQYLVEGLVDVIQPDACNIGGVTGSMKVAALAEAFSVEVSYHNAYGPVQFALEVQLSAVTPTLYRLESFYDYWPQWKRDLIGDPFRLSQSSVEVPRGPGIGVAVNERVLEKYRAEPSEIPVGEEPVWVVRGTWREGHHHHHH”, “not soluble”.
To “SLSMVLLRGRLLSFRRAPLSIDDTQSYLYIEDGGLLLENGRIAAIGEYADIRETAPEDVEEKDHRPHLIVPGLIDMHLHFPQMQVIGSYAANLLEWLNTYTFPEECRFVESAHAQRIATHFYDELLRHGTTTAAAYCSVHKTSADAFFTEAMKRNMLMIGGKVMMDRNAPQGLLDTPETSYDETRQVIADWHGRGRNHVAITPRFAITSTPKQMEAAQALAQEFPDLFIQTHLSENLDEIKYTCELYPEATDYTDIYVRYGLMGNKTLLGHAIHLSDREADVLSETGAVAVHCPTSNLFIGSGLFPMKKLQRREKPVRIAVATDIGGGSSYSMLRTMDEAYKIQQLLGERLNPLESWYLMTRGNAEALSMVDRIGTLEAGTDADITVLNASSTPAMALKMEVVKSLTEELFLMLTMGDDRTVVETYVAGRAMKSVLA” belongs “not soluble”; to “MGSDKIHHHHHHMRAPKISEGKINCKEDDNLKLTVLVDNNTILSNNPHFQDRYFLSEPGLSIFIEADGKKVLFDTGHTGIFLQNSEKMNLDLSDLDYLVLSHGHIDHTGGLKSLIDFYQNQGKTNLKDKPTLIAHPECFLSKIDSPWGEIGCGIPEAEITCHFQLQLSREPLWLTENLVFLGEIERSNDFENLTPLGKVHKNTEGQDDYILDDSALVYKGSKGLIIITGCSHAGICNITKYAQKVCRDERVIDIIGGLHLINPGPIQMEKTKEFLKNVAPQTIRACHCTSLRPKIALAESLNMEEVGTGLQLEYY”, “not soluble”.
In the case of “MEGIDMLDIKLIRENPELVKNDLIKRGELEKVKWVDEILKLDTEWRTKLKEINRLRHERNKIAVEIGKRRKKGEPVDELLAKSREIVKRIGELENEVEELKKKIDYYLWRLPNITHPSVPVGKDENDNVPIRFWGKARVWKGHLERFLEQSQGKMEYEILEWKPKLHVDLLEILGGADFARAAKVSGSRFYYLLNEIVILDLALIRFALDRLIEKGFTPVIPPYMVRRFVEEGSTSFEDFEDVIYKVEDEDLYLIPTAEHPLAGMHANEILDGKDLPLLYVGVSPCFRKEAGTAGKDTKGIFRVHQFHKVEQFVYSRPEESWEWHEKIIRNAEELFQELEIPYRVVNICTGDLGYVAAKKYDIEAWMPGQGKFREVVSASNCTDWQARRLNIRFRDRTDEKPRYVHTLNSTAIATSRAIVAILENHQEEDGTVRIPKVLWKYTGFKEIVPVEKKERCCAT” it was “soluble”.
Consider “MEHTIAVIPGSFDPITYGHLDIIERSTDRFDEIHVCVLKNSKKEGTFSLEERMDLIEQSVKHLPNVKVHQFSGLLVDYCEQVGAKTIIRGLRAVSDFEYELRLTSMNKKLNNEIETLYMMSSTNYSFISSSIVKEVAAYRADISEFVPPYVEKALKKKFK”, for which the “soluble on expression in E. coli” value is “not soluble”.
Consider “MGSDKIHHHHHHVTYVRNNALHCGPLPQHVTAPSFRSGTGFYETLLYNGCRLVNADAHMERITRSARACGLHLLPVDLHAAAQMLLDHLGLCGSMARINLFYTLENAPAADASGLCPPLVPAVTAAPYTPPPADKAFRLCRALHGVQSWWHEHKTTAHMGHLMERTHAQAAGYDDAVLHLPDGAILETTTAALIFYNGSRFTAPFPRFRLSSTAEALVKDVLGITYEKITADRLGCMQHAYVLNALMGMRPVRSIDTAEFNPDTDLCNEMTVLIQKAA”, for which the “soluble on expression in E. coli” value is recorded as “not soluble”.
With “HAYKNALYDDEVSQFSNNWPLYYPLTARKFIYKHDLVDENIASKNRVELTNIERSSLNYPLAPIQVQSKEKQPNVLFILVDAWRYSDATPEVMPNVSKFAEKTVNFTQHMSGGNSTQAGIFSLFYSLPATYWESFYASQRSPVFMDTLQAEGYRMGIFGSAPLTSPPLSRTVFKKVSDLTLKQTGETAVERDQQITDKFIEFQKQDSDKPYFGFLFYDAAHGTVFPEPEFAKFKPYWERVDHILLNNDFDASLYHNRYKNSLYYIDSLIDDVLKNVDLDNTIVVISSDHGEEFNDHKMNYWGHTGNYSDVQVHVPLYVYMPNRQPEQIDYRTTHFDVVPTMMNTLFDVQGTTSSYSVGHNLFDSSAPRDWYIAGSYYNYALVGKELMLVVNPGGHSQQLNRQLKVEKEQKVPVDIIRHSLDEMSRFYKKG”, the “soluble on expression in E. coli” value is reported as “not soluble”.
To “MPLAVDLLHPEPQREIRCHKLKRLVQHPNSYFMDVKCSGCFKISTVFSHATTVVVCVGCNTVLCQPTRGKAKLTEGCSFRKKQ” belongs “not soluble”.
To “MKPLRSPWVMRALARFFSGYIALTYKTLRWTREGQAIADRVQAEALASGGGAILALWHSRVPVGPATWPQGPDKPEIRVLVSQSRDGEFIARVIARLGLPSIRGSSLKKTDTAKNKGGEQAFRDMVKWVKDGGAMAITPDGPRGPVEVMQKGAVALARVSGAPVLFVGVAVNPCIRLKTWDRTIIPLPFAKAAMVWDGPVHAGRDDDPDAVVEAWGARLSAVSRRAEAIVGETPPKDLEHHHHHH” belongs “not soluble”; to “GPGSMLASSSLVSVKRTLRIKVGTSTSERLRAAELDEPTTSSARPPPSAMDLSYITGKMPDTLPAYQTERAVWSATTFRSAWNKLHKAYASFLETDPERAAELRAKDWQGLALYNSYAETLHLMSLLPATLRTAITQHSSFDYTEVEELFVHLGQDVEVRGSGGWVIQLPPPTTADLQYLVKHIGRFGADGRGCVANTAHRASVWRGRHGEALGVTLRVGRYVPGAARALLPLAQRGSLLILSKAGMGKTTLLRDLAAALAQEPGTPRVTVVDTSNEIGGDGPIPLPYLGRCRRIQVAQRQDQGRVMMEVIQNHTPEYLIVDEIATEEEAEAAWSISQRGVHLIGTCHGEHLEGLLQNRALNLLVGGAAQAFLSNEERRLRNKMKKTVLERPYSSPFSFVVELHARNLGHLYVDVNKAVDLVLDEQPAQLNGAVGAAVELSALLPSRVEKLLRLHDERKRKLKYVAGTGTNDAEVGEEDDETATFSSAARGTVDEDGYTLLADDGGDPESKRSIAPSTYAAPNHASGRRPHWQAEKQRRHRKTDDELYGELKGSF”, “not soluble”.
With “MGSDKIHHHHHHMRVTADEGLYGEEATQGTEFRFHCETLFSRSSLHRFEIGLHRHSAFLQILYIFGGEGDALLEGRIEPIRPPVAIIVPPGFEHGFRFSRDIGGVIVTMLPGALPASVQALLLRNFQQPVLLRLRDFAEKDGLRSGFERISAEYEAREIGRDAMIEGQLATVVTLLSRAARPLLETSGEGLAEQRFERLLSLIARHIREPQKAGFYAGKLGLSETHLNRLVRSVSGLSLQRLIAKRQIEIAQQELIFTVSSVQMIAEGLGFADPAYFNRFFKRETGMTPRAWRLAEQRKMGDTGARLTPPQTSILASSR”, the “soluble on expression in E. coli” value is “not soluble”.
For “MVLIDTEYVRAVVHNVGHRARCGVASKVRALKLAHSQARLRSYSQACERASYIDGRCEYYPSLDVASSSRNSEMLNSGFFDGYSWNTPNIQSQSSSDVTAKTELRRLMTETSEDPIHKEDSETLRRLIMWQEFRDAGVDVNTTQPGYGYGIEAKVEPFPQKLQNYESIHLETRRSSCPSFGTQLYNEPIYEGDEDPLGLGITPPVVTKTSGSLSNNGLDGINLNWKSIPAPVHQMQQHNANGDFVAAWPQNTIEKPTVGPLDKLQKQFEDIKLISISSGENTPTTRSKADEWLDDVLRVSMSMSPTSPSSDPPSTSSYSVLPKSGPPPAHAPPPLPVRQAVSNGSPSIYQQQLQQANSTRNSPAGINWNSSPNPMKISQPPAKPVDPFDVQWSRLAVNNTH”, the “soluble on expression in E. coli” value is listed as “not soluble”.
In the case of “MAAIKANEQDAVGMIVRKQSEFEENSHNFNNNGPSLSDMPIEVIHNIVDYVDPINILVIRKVCRKLRNVLDGDPKFKDVHLHQPTSLDMNFSLELDDSWVDYRTNGSGSGLGLFRNSISKTKTKIFVLKHENENENENGTNCTYGF”, the “soluble on expression in E. coli” value was “soluble”.
To “MGSDKIHHHHHHMIFIPPFEQGKLLRRYKRFLADVLLDDGTEITIHCPNTGSMRNCLFPGERVWFSTSDNPKRKYAHTWEQAASDEGHIIGINTGRANALAAEAIEAGVISELTGYDRLRREVKYGSENSRIDLLLESEDKPACYIEVKSCTLLEQGQGYFPDAVTTRGQKHLRELMEMVKQGHRAVLLFVVQHTGITTVAAARHIDPEYAELLTQAHQAGVEILAYSCELSPSAAKLIKSCPVKL” belongs “not soluble”.
To “MDDRLFRNAMGKFATGVTVITTELNGAVHGMTANAFMSVSLNPKLVLVSIGEKAKMLEKIQQSKKYAVNILSQDQKVLSMNFAGQLEKPVDVQFEELGGLPVIKDALAQISCQVVNEVQAGDHTLFIGEVTDIKITEQDPLLFFSGKYHQLAQNEKVETSS” belongs “soluble”.
